Laboratory results: patent US8629241B2, “Alpha helical mimics, their uses and methods for their production” (The University of Queensland, priority 2004, dated 2014)
Where two headings read alike, the source gives them in different places. Bridges are numbered along the chain shown (N, C = ends). Where no end group is shown, it is not given here. [ ]: non-standard residue; d: D form. NPhGly = O=C(O)CNc1ccccc1; Orn = NCCC[C@H](N)C(=O)O

Type: physicochemical
Settings: for θ222/θ208 / [θ]192 / [θ]208 / [θ]222: Table 8; for [θ]192 / [θ]208 / [θ]222: one or more cyclic pentapeptide modules versus linear peptides; for % helicity: fH × 100, [θ∞H]222 = −44000, k = 2.6; for [θ]207: molar elipticity at 207 nm
Method: Circular Dichroism (CD) was performed on peptides having SEQ ID NOs: 8 to 14 and 18 to 31, using methods described above. The molar elipticities at 222 nm, 208 nm and 190 nm, ratios of elipticities at 222 nm/208 nm and relative helicity are shown in Tables 6 and 7.
Assuming that mean alpha helix content (fH) is linearly related to elipticity at 222 nm, or in our case 215 nm ([θ]obs215), then the equation for calculating helix content is: fH=([θ]obs215−[θ]C)/([θ]∞215−[θ]C) (1) Luo and Baldwin^22 determined that the random coil ([θ]C) and infinite alpha helix ([θ]∞222) molar elipticities are temperature dependent based on the equations: [θ]C=2220−53T (2a) [θ]∞215=(−44000+250T)(1−k/Np) (2b) where T is temperature in degrees Celsius, Np is the number of peptide units, and k is a finite length correction.
CD was performed on peptides having one [SEQ ID NO: 8] or more than one modular macrocycle [SEQ ID NOs: 46 and 47], as compared with corresponding linear peptides, Ac[KARAD]n—NH2 where n=1 [SEQ ID NO: 14], n=2 [SEQ ID NO: 54] and n=3 [SEQ ID NO: 55]. The molar elipticities at 222 nm, 208 nm and 190 nm, ratios of elipticities at 222 nm/208 nm and percentage helicity are shown in Table 8.
CD experiments were performed on a Jasco Model J-710 spectropolarimeter which was routinely calibrated with (1S)-(+)-10-camphorsulfonic acid. Temperature control was achieved using a Neslab RTE-111 circulating water bath. Spectra were recorded in a 0.1 cm Jasco cell between 310-185 nm at 50 nm/min with a band width of 1.0 nm, response time of 2 sec, resolution step width of 0.1 nm and sensitivity of 20, 50 or 100 mdeg. Each spectrum represents the average of 5 scans with smoothing to reduce noise. Peptide samples for CD spectroscopy were dissolved in distilled water (˜1 mg/mL). Each stock solution was diluted to a final concentration of 50 μM in 10 mM sodium phosphate buffer (pH7.4), with or without additives (2,2,2-trifluoroethanol (TFE) or guanidine.HCl). Guanidine.HCl denaturation experiments were performed according to Creighton^105.
1D ^1H NMR spectra were then recorded with presaturation and a relaxation delay (d1) of 30 seconds to allow for full relaxation of peptide and DSS^1H signals to facilitate accurate integration of proton signals with S/N>250:1. This method provides reproducible concentrations within ±2%.
CD data in ellipticity was converted to mean peptide ellipticity using the equation: [θ]=θ/(10×C×Np×1) where θ is the ellipticity in millidegrees, C is the peptide molar concentration (M), 1 is the cell path length (cm), and Np is the number of peptide units (ie. pentapeptides […], 10 & 11 Np=5, 12 Np=4.)
Relative helicities were employed to allow scaling of compounds by dividing the [θ]obs215(8)/[θ]obs215(x) for pentapeptides, and [θ]obs215(24)/[θ]obs215(x) for hexapeptides.

[1] = cyclic hexapeptides 23-31, 10 mM phosphate buffer pH 7.4 at 25° C
[2] = θ215 relative to SEQ ID NO: 24, 10 mM phosphate buffer pH 7.4 at 25° C
[3] = [θ]215 relative to SEQ ID NO: 8, 10 mM phosphate buffer, pH 7.4, 25° C
[4] = molar elipticity at 190 nm, 10 mM phosphate buffer, pH 7.4, 25° C
[5] = 10 mM phosphate buffer, pH 7.4, 25° C
[6] = molar elipticity at 215 nm, 10 mM phosphate buffer, pH 7.4, 25° C
[7] = ratio of elipticities, 10 mM phosphate buffer, pH 7.4, 25° C

Substance: cyclo(1-5, 6-10, 11-15)-Ac-[KARADKARADKARAD]-NH2 (Ac-KARADKARADKARAD-NH2; lactam 1-5, 6-10, 11-15; SMILES CC(=O)N[C@H]1CCCCNC(=O)C[C@@H](C(=O)N[C@H]2CCCCNC(=O)C[C@@H](C(=O)N[C@H]3CCCCNC(=O)C[C@@H](C(N)=O)NC(=O)[C@H](C)NC(=O)[C@H](CCCNC(=N)N)NC(=O)[C@H](C)NC3=O)NC(=O)[C@H](C)NC(=O)[C@H](CCCNC(=N)N)NC(=O)[C@H](C)NC2=O)NC(=O)[C@H](C)NC(=O)[C@H](CCCNC(=N)N)NC(=O)[C@H](C)NC1=O) [SEQ ID NO: 47]
- θ222/θ208: 1.34
- [θ]192: 100811 degcm^2dmol^−1residue^−1
- [θ]208: −23842 degcm^2dmol^−1residue^−1
- [θ]222: −31987 degcm^2dmol^−1residue^−1
- % helicity: 88%

Substance: Ac-(cyclo-2,6)-R[KSSSD]-NH2 (Ac-RKSSSD-NH2; lactam 2-6; SMILES CC(=O)N[C@@H](CCCNC(=N)N)C(=O)N[C@H]1CCCCNC(=O)C[C@@H](C(N)=O)NC(=O)[C@H](CO)NC(=O)[C@H](CO)NC(=O)[C@H](CO)NC1=O) [SEQ ID NO: 30]
- Molar ellipticity at 207 nm [1]: −8017 deg.cm^2.dmol^−1.residue^−1
- [θ]190 [1]: 6827 deg.cm^2.dmol^−1.residue^−1
- [θ]215 [1]: −4432 deg.cm^2.dmol^−1.residue^−1
- θ215/θ207 [1]: 0.55
- Relative helicity [2]: 0.30

Substance: Ac-(cyclo-2,6)-R[KAQAD]-NH2 (Ac-RKAQAD-NH2; lactam 2-6; SMILES CC(=O)N[C@@H](CCCNC(=N)N)C(=O)N[C@H]1CCCCNC(=O)C[C@@H](C(N)=O)NC(=O)[C@H](C)NC(=O)[C@H](CCC(N)=O)NC(=O)[C@H](C)NC1=O) [SEQ ID NO: 26]
- Molar ellipticity at 207 nm [1]: −12279 deg.cm^2.dmol^−1.residue^−1
- [θ]190 [1]: 36865 deg.cm^2.dmol^−1.residue^−1
- [θ]215 [1]: −11394 deg.cm^2.dmol^−1.residue^−1
- θ215/θ207 [1]: 0.93
- percentage helicities (equation 2b with k˜4, assuming 8 has 100% helicity): 70%
- Relative helicity [2]: 0.84

Substance: SEQ ID NO: 55: linear peptide Ac(KARAD)n-NH2 where n=3 (Ac-KARADKARADKARAD-NH2)
- θ222/θ208: 0.39
- [θ]192: −8024 degcm^2dmol^−1residue^−1
- [θ]208: −9788 degcm^2dmol^−1residue^−1
- [θ]222: −3852 degcm^2dmol^−1residue^−1
- % helicity: 7%

Substance: Ac-(cyclo-1,5)-[KARAD]-OH (Ac-KARAD-OH; lactam 1-5; SMILES CC(=O)N[C@H]1CCCCNC(=O)C[C@@H](C(=O)O)NC(=O)[C@H](C)NC(=O)[C@H](CCCNC(=N)N)NC(=O)[C@H](C)NC1=O) [SEQ ID NO: 20]
- Relative helicity [3]: 0
- Relative helicity ([θ]215 relative to SEQ ID NO: 8, in 0.01 M HCl pH 2): 0.06
- [θ]190 [4]: −13953 deg.cm^2.dmol^−1.residue^−1
- [θ]190 (molar elipticity at 190 nm, in 0.01 M HCl pH 2): −2659 deg.cm^2.dmol^−1.residue^−1
- [θ]207 [5]: −5643 deg.cm^2.dmol^−1.residue^−1
- [θ]207 (in 0.01 M HCl pH 2): −3195 deg.cm^2.dmol^−1.residue^−1
- [θ]215 [6]: 207 deg.cm^2.dmol^−1.residue^−1
- [θ]215 (molar elipticity at 215 nm, in 0.01 M HCl pH 2): −625 deg.cm^2.dmol^−1.residue^−1
- θ215/θ207 [7]: −0.04
- θ215/θ207 (ratio of elipticities, in 0.01 M HCl pH 2): 0.20

Substance: Ac-(cyclo-1,5)-[OARAD]-NH2 (Ac-[Orn]ARAD-NH2; lactam 1-5; SMILES CC(=O)N[C@H]1CCCNC(=O)C[C@@H](C(N)=O)NC(=O)[C@H](C)NC(=O)[C@H](CCCNC(=N)N)NC(=O)[C@H](C)NC1=O) [SEQ ID NO: 12]
- Relative helicity [3]: 0
- [θ]190 [4]: −4613 deg.cm^2.dmol^−1.residue^−1
- [θ]207 [5]: −2077 deg.cm^2.dmol^−1.residue^−1
- [θ]215 [6]: 92 deg.cm^2.dmol^−1.residue^−1
- θ215/θ207 [7]: −0.04

Substance: Ac-(cyclo-1,5)-[DARAK]-NH2 (Ac-DARAK-NH2; lactam 1-5; SMILES CC(=O)N[C@H]1CC(=O)NCCCC[C@@H](C(N)=O)NC(=O)[C@H](C)NC(=O)[C@H](CCCNC(=N)N)NC(=O)[C@H](C)NC1=O) [SEQ ID NO: 9]
- Relative helicity [3]: 0.60
- [θ]190 [4]: 15600 deg.cm^2.dmol^−1.residue^−1
- [θ]207 [5]: −10705 deg.cm^2.dmol^−1.residue^−1
- [θ]215 [6]: −7723 deg.cm^2.dmol^−1.residue^−1
- θ215/θ207 [7]: 0.72

Substance: H-(cyclo-1,5)-[KARAD]-OH (H-KARAD-OH; lactam 1-5; SMILES C[C@@H]1NC(=O)[C@H](CCCNC(=N)N)NC(=O)[C@H](C)NC(=O)[C@@H](N)CCCCNC(=O)C[C@@H](C(=O)O)NC1=O) [SEQ ID NO: 22]
- Relative helicity [3]: 0.08
- [θ]190 [4]: −4966 deg.cm^2.dmol^−1.residue^−1
- [θ]207 [5]: −5737 deg.cm^2.dmol^−1.residue^−1
- [θ]215 [6]: −1033 deg.cm^2.dmol^−1.residue^−1
- θ215/θ207 [7]: 0.18

Substance: Ac-(cyclo-2,6)-R[KAGAD]-NH2 (Ac-RKAGAD-NH2; lactam 2-6; SMILES CC(=O)N[C@@H](CCCNC(=N)N)C(=O)N[C@H]1CCCCNC(=O)C[C@@H](C(N)=O)NC(=O)[C@H](C)NC(=O)CNC(=O)[C@H](C)NC1=O) [SEQ ID NO: 28]
- Molar ellipticity at 207 nm [1]: −7678 deg.cm^2.dmol^−1.residue^−1
- [θ]190 [1]: 10036 deg.cm^2.dmol^−1.residue^−1
- [θ]215 [1]: −4874 deg.cm^2.dmol^−1.residue^−1
- θ215/θ207 [1]: 0.63
- Relative helicity [2]: 0.32

Substance: Cyclo(6-10, 11-15)-NpheGGFT[KARKD][KRKLD]-NH2 ([NPhGly]GGFTKARKDKRKLD-NH2; lactam 6-10, 11-15; N-terminus assumed; SMILES CC(C)C[C@@H]1NC(=O)[C@H](CCCCN)NC(=O)[C@H](CCCNC(=N)N)NC(=O)[C@@H](NC(=O)[C@@H]2CC(=O)NCCCC[C@H](NC(=O)[C@@H](NC(=O)[C@H](Cc3ccccc3)NC(=O)CNC(=O)CNC(=O)CNc3ccccc3)[C@@H](C)O)C(=O)N[C@@H](C)C(=O)N[C@@H](CCCNC(=N)N)C(=O)N[C@@H](CCCCN)C(=O)N2)CCCCNC(=O)C[C@@H](C(N)=O)NC1=O) [SEQ ID NO: 77]
- helicity by CD compared to native agonist and antagonist sequences (versus F/Nphe-[…], FIG. 12): increase helicity

Substance: Ac-(cyclo-1,5)-[DARAO]-NH2 (Ac-DARA[Orn]-NH2; lactam 1-5; SMILES CC(=O)N[C@H]1CC(=O)NCCC[C@@H](C(N)=O)NC(=O)[C@H](C)NC(=O)[C@H](CCCNC(=N)N)NC(=O)[C@H](C)NC1=O) [SEQ ID NO: 13]
- Relative helicity [3]: 0.37
- [θ]190 [4]: −6954 deg.cm^2.dmol^−1.residue^−1
- [θ]207 [5]: −9748 deg.cm^2.dmol^−1.residue^−1
- [θ]215 [6]: −4671 deg.cm^2.dmol^−1.residue^−1
- θ215/θ207 [7]: 0.48
